Experimental data reported in patent publication US20220017604A1 (WASHINGTON UNIVERSITY, published 2022).
Several values for one entry are separate records, joined by “and”; a condition that tells them apart may be missing. Equal entries are not always repeated.

Biological target: S protein of infectious SARS-CoV-2 strain 2019 n-CoV/USA_WA1/2020 (SARS-CoV-2, UniProt P0DTC2 14-1273)
Test: cell-based or functional assay

| Binder | IC50, neutralization of infectious SARS-CoV-2 | IC50, focus reduction neutralization test (FRNT) on Vero E6 cells [ng/mL] | IC50, live virus neutralization assay [ng/mL] |
| --- | --- | --- | --- |
| 2H04 (antibody, V domains shown) VH: EVQLQQSGAELVKPGASVKMSCKASGYTFTSYWITWVKQRPGQGLEWIGDIYPGSGSTKYNEKFRSEATLTVDTSSTTAYMQLSSLTSEDSAVYYCARWDFYGSRTFDYWGQGTTLTVSS VL: DIVLTQSPAILSVSPGERVSFSCRASQNIGTIIHWYQQRTNGSPRLLIKYASESVSGIPSRFSGSGSGTDFTLSINSVESEDIADYYCQQSSSWPLTFGAGTKLELK | < 500 ng/mL | – | – |
| murine/human chimeric mAb Ab-1 (2B04) (antibody, V domains shown) VH: QVQLKQSGPGLVAPSQSLSITCTVSGFSLINYAISWVRQPPGKGLEWLGVIWTGGGTNYNSALKSRLSISKDNSKSQVFLKMNSLQTDDTARYYCARKDYYGRYYGMDYWGQGTSVTVSS VL: QAVVTQESALTTSPGETVTLTCRSSTGAVTTSNYANWVQEKPDHLFTGLIGGTNNRAPGVPARFSGSLIGDKAALTITGAQTEDEAIYFCALWYNNHWVFGGGTKLTVL | < 2 ng/mL and < 500 ng/mL | 1.46 | – |
| Hu-Ab-1 (Hu-2B04) (antibody, V domains shown) VH: EVQLQESGPGLVKPSETLSLTCTVSGFSLINYAISWVRQPAGKGLEWLGVIWTGGGTNYNAALKSRLSISKDNSKSQVSLKMNSVTAADTAVYYCARKDYYGRYYGMDYWGQGTTVTVSS VL: QAVVTQEPSLTVSPGGTVTLTCRSSTGAVTTSNYANWVQEKPGQAFRGLIGGTNNRAPGVPARFSGSLLGDKAALTLSGAQPEDEAEYFCALWYNNHWVFGGGTKLTVLG | – | – | 1.65 |
